Article PMC8864705 (Chemical Science, 2022)

T1: 4.1G-CTD triple mutation I958D/V959D/I960D (human, UniProt O43491 939-1005, I958D | V959D | I960D)
T1 sequence (looked up): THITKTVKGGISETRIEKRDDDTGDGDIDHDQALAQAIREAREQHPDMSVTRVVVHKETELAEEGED

T2: C-terminal domain of protein 4.1G (4.1G-CTD, aa 939–1005) (human, UniProt O43491 939-1005)
T2 sequence (looked up): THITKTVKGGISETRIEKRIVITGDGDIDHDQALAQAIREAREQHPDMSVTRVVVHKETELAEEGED


What was measured:
[1] = biological target: T1, 4.1G-CTD triple mutation …; experiment: ITC
[2] = biological target: T2, C-terminal domain of protein 4.1G …; experiment: ITC

Binder	Kd [1] [µM]	binding result [2]
SGRKTRSARRRTTQIINITMTKKLDV (domain or fragment, human, UniProt Q14980 1800-1825, looked up) [NuMA 1800–1825 (26-residue motif at the C-terminal region of nuclear mitotic apparatus protein)]	333 ± 73	–
SGRKTRSARRRTTQIINITMTKKLAV (domain or fragment, human, UniProt Q14980 1800-1825, looked up) [NuMA 1800–1825 mutant D1824A]	–	binds
